In patent publication US20030027314A1 (published 2003):

How the values were obtained:
[1] = target: the molecule itself; test: homodimer, study of FIG. 9 (method not given)
c-Jun (unmodified) [2] = test: from thermal melts, Kd at 37 °C (FIG. 4)
c-Jun (unmodified) [3] = test: thermal melting curve, mixture (FIG. 4)
[4] = target: the molecule itself; test: CD thermal melt, homodimer, 150 mM KCl
CREB (unmodified) = target: T1, CREB (unmodified); test: thermal melting curve, mixture (FIG. 3)
T1 construct: also called unmodified CREB
T1 sequence (chain, from a related filing, looked up): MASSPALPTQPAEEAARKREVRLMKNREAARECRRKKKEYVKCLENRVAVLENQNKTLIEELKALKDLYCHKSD

c-Jun (unmodified), sequence (chain, from a related filing, as listed by the source): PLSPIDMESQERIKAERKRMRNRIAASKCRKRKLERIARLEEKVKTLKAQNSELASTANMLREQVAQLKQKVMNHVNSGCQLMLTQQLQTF

B1: 0heptadMax (dimerization domain of Max without an acidic extension) (other)
chain: ASMTGGQQMGRDPDLEELEDSFHSLRDSVPSLQGEKASRAQILDKATEYIQYMRRKNHTHQQDIDDLKRQNALLEQQVRALEKARSSAQLQT
Kd [1]: 100 nM

B2: 4heptad-Fos (c-Fos with the basic region replaced by four acidic heptad repeats) (designed binder)
chain: MASMTGGQQMGRDPDLEQRAEELARENEELEKEAEELEQENAELEAETDQLEDEKSALQTEIANLLKEKEKLEFILAAHRPACKIP
notes: How the two entries relate is not explained; also called aFos; aZIP 4heptadFos
Kd (c-Jun (unmodified) [2]): 6 nM
Tm (c-Jun (unmodified) [3]): 61 °C

B3: 0heptad-F (F zipper with the basic region deleted) (designed binder)
chain: ASMTGGQQMGRDPGGGTQQEVLELESRNDRLRKEVEQLERELDTLRGIFRQLPESSLVKAMGNCA
notes: expressed in E. coli; also called 0heptad-F (H); heterodimerizing zipper
delta G at 25 °C [4]: -8 kcal/mol

B4: 4heptadCREB (CREB with 4 heptad repeats appended at the amino terminus) (designed binder)
chain: ASMTGGQQMGRDPDLEQRAEELARENEELEKEAEELEQENAELENRVAVLENQNKTLIEELKALKDLYCHKSD
notes: also called 4hep-CREB
Tm (CREB (unmodified)): 53 °C
